Experimental data from patent publication US20170202953A1 (AGENCY FOR SCIENCE TECHNOLOGY AND RESEARCH, published 2017).

Key:
[1] = molecular target: T1, HBc18-27-HLA-A201 pentamer (PE-conjugated HLA-A2 class I pentamer bearing the HBc18-27 epitope, Proimmune) (Hepatitis B virus; human); assay: flow cytometry, pentamer staining of transduced lymphocytes; the filing puts the difference down to expression of the Vα3 chain
T1 construct: also called HLA-A2 pentamer; HBc18-HLA-A201 pentamer

[2] = molecular target: T2, HBV core antigen (HBc18-27, genotype B/C; 27I) peptide on HLA-A*02:06 (human); assay: T cell clone or line
T2 peptide: FLPSDFFPSI

[3] = molecular target: T3, HBV core antigen (HBc18-27, genotype B/C; 27I) peptide on HLA-A*02:07 (human); assay: T cell clone or line
T3 peptide: FLPSDFFPSI

[4] = molecular target: T4, HBV core antigen (HBc18-27, genotype B/C; 27I) peptide on HLA-A*02:01 (human); assay: T cell clone or line
T4 peptide: FLPSDFFPSI

[5] = molecular target: T5, HBV envelope antigen (HBs370-79, genotype C) peptide on HLA-A*02:01 (human); assay: cytokine release
T5 peptide: NILNPFLPLL

[6] = molecular target: T6, HBV envelope antigen (HBs370-79, genotype A/D) peptide on HLA-A*02:01 (human); assay: cytokine release
T6 peptide: SIVSPFIPLL

[7] = molecular target: T7, HBV envelope antigen (HBs370-79, genotype B) peptide on HLA-A*02:01 (human); assay: cytokine release
T7 peptide: NILSPFMPLL

B1: HBc18-Opt-TCR (codon optimized HBc18-27 TCR, Vα3 / Vβ8.2) (TCR, V domains shown)
V domain 1: SQQGEEDPQALSIQEGENATMNCSYKTSINNLQWYRQNSGRGLVHLILIRSNEREKHSGRLRVTLDTSKKSSSLLITASRAADTASYFCATWLSGSARQLTFGSGTQLTVLP
V domain 2: DAGVIQSPRHEVTEMGQEVTLRCKPISGHDYLFWYRQTMMRGLELLIYFNNNVPIDDSGMPEDRFSAKMPNASFSTLKIQPSEPRDSAVYFCASSNRASSYNEQFFGPGTRLTVLE
notes: also called codon optimized TCR; HBc18-Opt-Vα3 and HBc18-Opt-Vβ8.2
Q: Which “fold frequency of pentamer positive cells against HBc18-WT-TCR” value [1] does the source give for B1 here?
A: 2 fold

B2: HBc18-27 TCR (TCR, V domains shown)
Valpha: SQQGEEDPQALSIQEGENATMNCSYKTSINNLQWYRQNSGRGLVHLILIRSNEREKHSGRLRVTLDTSKKSSSLLITASRAADTASYFCATWLSGSARQLTFGSGTQLTVLP
Vbeta: DAGVIQSPRHEVTEMGQEVTLRCKPISGHDYLFWYRQTMMRGLELLIYFNNNVPIDDSGMPEDRFSAKMPNASFSTLKIQPSEPRDSAVYFCASSNRASSYNEQFFGPGTRLTVL
Q: Which results are given for B2?
A: peptide concentration still recognised [2]: ≤ 1 pM; peptide concentration still recognised [3]: ≤ 1 pM; peptide concentration still recognised [4]: ≤ 1 pM

B3: HBs370-79 TCR (TCR, V domains shown)
Valpha: QKEVEQNSGPLSVPEGAIASLNCTYSDRGSQSFFWYRQYSGKSPELIMFIYSNGDKEDGRFTAQLNKASQYVSLLIRDSQPSDSATYLCAVNLYAGNMLTFGGGTRLMVKP
Vbeta: GAGVSQSPRYKVAKRGQDVALRCDPISGHVSLFWYQQALGQGPEFLTYFQNEAQLDKSGLPSDRFFAERPEGSVSTLKIQRTQQEDSAVYLCASSSDFGNQPQHFGDGTRLSIL
Q: Does B3 bind [5]?
A: recognises

Q: Does B3 bind [6]?
A: recognises

Q: Does B3 bind [7]?
A: recognises
